According to the nanobody polyreactivity screen of Harvey et al. (2022):

Assay: yeast display, Sf9 membrane polyspecificity reagent, FACS + sequencing; frameworks hold sequencing errors
In short: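 In a synthetic yeast display library (Saccharomyces cerevisiae BJ5465), nanobody expression was induced with galactose for 36–48 hours. FACS gates were set low and high (top ~1%) using anti-HA fluorescence for expression and streptavidin fluorescence for binding of the Sf9 membrane reagent. Each polyreactivity label is drawn from the gate of origin.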

Row | Sequence | polyreactivity (PSR sort gate)
1 | QVQLVESGGGLVHAGGSLRVSCAASGSISDSYAMGWYREAPGKERELVAAITSGDSTYYADSVKGRFTISLDNAKNTVYLQMNSVKPEDTAVYYSAKRVSRVRGYGFTDWSEYDYWGQGTQVTVSS | low polyreactivity
2 | QVQLVESGGGLVQAGGRLRLSCAASGRTFARYDRGWYRQAPGKELVLVAGMNGDGGSTNYADSVKGRFTISRDNAKNSVYLQMNSLKPEDTAVYYCNVVQEDRTLHVSIKQLSDHWGQGTQVTVSS | low polyreactivity
3 | QVQLVESGGGLVQAGGSLRLSCAASGSIFTPNAMGWYRQAPGKERELVAAISRSGGSTYYADSVKGRFTISRDNAKNTVYLQMNSLKPEDTAVYYCAVDYRYYYRYTSGEYWGQGTQGTVSS | low polyreactivity
4 | QVQLVESGGGLVQAGGSLRLSCAASGRTSREYAMGWYRQAPGKERELVAAISWNGGSTYYADSVKGRFTISRDNAMNTVYLQMNSLKPEDTAVYYCAARGKGYYRFGYWGQGTQVTVSS | high polyreactivity
5 | QVQLVESGGGLVQAGGRLRLSCAASGRIFYWNVMGWYRPAPGKERELVAAISSSGASTSYADSVKGRFTISRDNAKNTVYLQMNSLKPEDTAVYYCAARTRRNYRQYNYWGQGTQVTVSS | high polyreactivity
6 | QVQLLESGGGLVQAGGSLRLSCAASGSTFDYKSMGWYRQAPGKERELVATINDSGGNTYYADSVKGRFTISRDNAKNTVYLQMNSLKPEDTAVYYCATVGYLYTPVVVTWWDWGDYWGQGTQVTVSS | low polyreactivity
7 | QVQLQESGGGLVQAGGSLRLSCAASGSIFNVVDMGLYRQAPAKEREFVATIGEGGNTYYADSLKGSFTISRDNAKNTVYLQMNSLKPEDTAVYFYAVVLGTSFRYTYWGQGTQVTVSS | low polyreactivity
8 | QVQLVESGGGLVQAGGSLRLSCAASGRTLDVNAMGWYRQAPGKEKELVAAIDWGVGTTYYADSVKGRFTISRDNAKNTVYLQMNSLKPEDTAVYYCSVDVYYSVYGYPVQYYYWGQGNQVTVSS | high polyreactivity
9 | QVQLVESGGGLVQAGGSLRLSCAASGRIFGVYAMGWYRQAPGKERELVAAISFSGGRTYYADSVKGRFTISRDNAKNTVYLQMNSLKPEDTAVYYCAVRGYYSFLYSTAYDYWGQGTQVTVSS | low polyreactivity
10 | QVQLVESGGGLVQAGGSLRLSCAASGIIFSIYVMGWYRQAPGKERELVAAISRSGGSTYYADSVKGRFTISRDNAKNTVYLQMNSLKPEDTAVYYCAKKPTSTYQPDSPRWSDYWGQGTQVTVSS | high polyreactivity
11 | QVQLVESGGGLVQAGGSLRLSCAASGRIFRYNAMGWYRQAPGKERELVAAISTSGTRTFYADSVKGRFTISRDNAKNTVYLQMNSLKPEDTAVYYCNKVAGPGKLGTYYYWGQGTQVTVSS | high polyreactivity
12 | QVQLVESGGGLVQAGGSLRLSCAASGSTIPPYVMGWYRQAPGKERELVAAISSSTSSTYYADSVKGRFTISRDNAKNTVYLQMNSLKPEDTAVYYCADEYYTYEYIYDYWGQGTQVTVSS | high polyreactivity
13 | QVQLVESGGGLVQAGGSLRISCAASGRIFGTNAMGWYRQAPGKERELVADITSGGSTNYADSVKGRFTISRDNAKNTVYLQMNSLKPEDTAVYYCAAVVIGDLRWYRDEYWGQGTQVTVSS | low polyreactivity
14 | QVQLVESGGGLVQAGGSLRLSCAASGFIYGWYAMGWYRQAPGKERELVAAINWSGTSTYYADSVKGRFTISRDNAKNTVYLQMNSLKPEDTAVYYCAAYFQKLPTTGYDYWGQGTQVTVSS | low polyreactivity
15 | QVQLVESGGGLVQAGGSLRLSCAASGSTLRWNAMGWYRQAPGKERELVAAITYSGGSTYYADSVKGRFTISRDNAKNTVYLQMNSLKPEDTAVYYCAADSYRYRPGYGPVLYDYWGQGTQVTVSS | high polyreactivity
16 | QVQLVESGGGLVQAGGSLRLSCSASGSIFPKNAMGWYRQAPGKERELVARISGSGGSTYYADSVKGRFTISRDNAKNTVYLQMNSLKPEDTAVYYCAKDQSKIYSSWSGYYYWGQGTQVTVSS | low polyreactivity
17 | QVQLVESGGGLVQAGGSLRLSCAASGFIFRGYAMGWYRQAPGKERELVAAISRRGGSTYYADSVKGRFTISRDNAKNTVYLQMNSLKPEDTAVYYCNADTTPQGNVRDGYWGQGTQVTVSS | high polyreactivity
18 | QVQLVESVGGLVQAGGSLRLSCAASGSIFKYYAMGWYRQEPGKERELVAAITIGGNTNYADSVKGRFTISRDNAKNTVYLQMNSLKPEDTAVYYCATGGYYSAIVYGGYDYWGQGTQVSVSS | low polyreactivity
19 | QVQHVESGRCLFQAGGSLRLSCAASGSTFYNNALGWYRQAPGKERELVAVITDSGGRTYYADSVKGRFTISRDNAKNSVKLQMNSLKPEDCAVYYCAADIGYDVYNDYDYWGQGTQVTVSS | low polyreactivity
20 | HVQLVESGGGLVQAGGSLRLICAASGFIFRFNAMGWYRQAPGKERELVAAISGSGGITYYADSVKGRFTISRDNAKNTVYLQMNSLKPEDTAVYYCAARPLFGWRGYNYWGQGTQVTVSS | high polyreactivity
21 | QVQLVESGVGLVQAGGRLRLSCAASGRIFGSNAMGWYRQAPGKERELVAAITRSGGSTYYADSVKGRFTISRDNAKNTVYLQMNSLKPEDTAVYYCAAVRTQPKYDYCGQGTQVTVSS | high polyreactivity
22 | QVQLVESGGGLVQAGGSLRLSCAASGRTFGYYAMGWYRQAPGKEREFVAAISHSAGSTSYADSVKGRFTISRDNAKNTVYLQMNSLKPEDTAVYYCAADNPWYEMDYWGQGTQVTVSS | low polyreactivity

Row | Sequence | polyreactivity (PSR sort gate)
23 | QVQLVESGGGLVQAGGSLRLSCAASGRIFSPYAMGWYRQAPGKERELVAAINSIGGSTYYADSVKGRFTISRDNAKNTVYLQMNSLKPEDTAVYYCAVKWYRLGLIRWGGYWGQGTQVTVSS | high polyreactivity
24 | QVQLVESGGGLVQAGGSLRVSCAASGSIFYSNAMGWYRQAPGKERELVAAITRRGGSTYYADSVKGRFTISRDIATNPVYLQMNSLIPEDTAVYYCAARSKTSNLFNYWGQGTQVTVSS | high polyreactivity
25 | QVQLVESGGGLVQAGGSLRLSCAASGRTFGYYTMGWYRQAPGKERELVAAITSSGGSTYYADSVKGRFTISRDNAKNTVYLQMNSLKPEDTAVDYCAARAAYYFLYSAMYYWGQGTQVTVSS | high polyreactivity
26 | QVQLVESGGGLVQAGGSLRLSCAASGSIFGYNAMGWYRQAPGKEREFVAAITSGGSTYYADSVKGRFTISRDNAKNTVYLQMNSLKPEDTAVYYCRRRNVYSTRRYDYWGQGTQVTVSS | high polyreactivity
27 | QVQIVESGGGLVQAGGSLRLSCAASGLIFVVYAMGWNRQATGIERELVADISSVGRTSYADSVKGSFTISRDNAKNNVYLQMNSLKPEDTAVYYCNAYPVFNQYYCWRYDYLGQGTQVTVSS | low polyreactivity
28 | QVQLVESGGGLVQAGGSLRLRCAASGSIFGPNALGWYRQAAGKERELVAAISSGGSTNYADSVKGRFTISRDNAKNTVYLQMNSLKPEDTAVYYCAKDNYLDPPYFYRFAGYDYRGQGTQVTVSS | low polyreactivity
29 | QVQLVESGGGLVQAGGSLRLSWAASGRIIHYNVMGWYRQPPGKERDLVAAIRGGGRSTYYADSVKGRFTISRDNAKNTVYLQMNSLKPEDTAVYYCAKSLSQNTYYHQGYYDDNYWGQGTQVTVSS | low polyreactivity
30 | QVQLVESGGGLVQAGGSLRLSCAASGFIFGYNAMGWYRQAPGKERELVAAISYSGVSTYYADSVKGRFTISRDNAKNTVYLQMNSLKPEDTAVYYCAARPIGYKPRGEYDYWGQGTQVTVSS | high polyreactivity
31 | QVQLVESGGGLVQAGGSLRLSCAASGSTFPIYAMGWYRQAPGKERELVASIRSGGSTYYADSVKGRFTMSRDNAKNTVYLQMNSLKPEDTAVYYCARRDYGVLNKGLGQEGDYWGQGTQVTVSS | low polyreactivity
32 | QVQLVEYGGGLVQAGGSLRLSCAASGIIFKVYAMGWYRQAPGKEMELVAAISWSGGTTYYADSVKWRFTISRDNAKNTVYLQMNSLKPEDTAVYYCNAVVRVRFRKNDYWGQGTQVTVSS | high polyreactivity
33 | QVQLVESGGGLVQAGGSLRLSCAASGRIFLYNAMGWYRQAPGKERELVAAITASGGTTYYADSVKGRFTISRDNAKNTVYLQMNSLKPEDNAVYYCNAYSYSGERYYWGQGTQVTVSS | high polyreactivity
34 | QVQLVESGGGLVQAGGSLRLSCAASGSTIRRNAKGWYRQAPGKERELVAAITRRAVSTYYADSVKGRFTISRDNAKNTVYLQMNSLKPEDTAVYYCAADRASYFTYAYGYWGQGTQVTVSS | high polyreactivity
35 | QVQLVESGGGLVQAGGSLRLSCAASGSIFPIYAMGWYRQAPGKERELVAGIRGRGGRTYYADSVKGRFTISRDNAKNTVYLQMNSLKPEDTAVYYCAKANLTPQGRGDYDYWGQGTQVTVSS | high polyreactivity
36 | QVQLVESGGGLVQAGGSLSLSCAASGIIIYEYAMGWYRQAPGKEMELVAAISNGGSTYYADSVKGRFTISRDNAKNTVYLQMNSLKPEDTAVYYCAARGYFDALFDYWGQGTQVTVSS | low polyreactivity
37 | QVQLVESGGGLVQAGGSLRLSCAASGPTFDVYAMGWYRQAPGKERELVATISWRGTSTYYADSVKGRFTISRDNAKNTVYLQMNSLKPEDTAVYYCAAEVYYEYYYWRYYWGQGTQVTVSS | high polyreactivity
38 | QVQLVESGGGLVQAGGSLRLSCAASGFTFVFYAMGWYRQAPGKERELVAAISSGGGGTYYADSVKGRFTISRDNAKNTVYLQMNSLKPEDTAVYYCNTRYHKVYYGNDYWGQGTQVTVSS | high polyreactivity
39 | QVQLVESGGGLVQAGGSLRLSCAASGRTFLQYAMGWYRQAPRQERDLFATISFSGGSTYYADSVKGRITISRDNAKNTVYLLMNSLKPEDTAVYDCAKSQYRGRVYTGYDYWGQGTQVTVSA | low polyreactivity
40 | QVQLEESGGGLVQAGGSLRLSCAASGRTFWVYAMGWYRQAPGKERELVAAISRSGVSTYYADSVKGRFTISRDNAKNTVYLQMNSLKPEDTAVYYWAAEARVQFSYDYWGQGTQVTVSS | low polyreactivity
41 | QVQLVEAGGGLVQAGGSLRLSCAASGFIFYGYMGWYIQAHGKERELVAAISYTGGSTYYADSVKGRFTISRDNAKNTVYLQMISLKPEDTAVYYCARDWRTKWFGYWGQGTQVTVSS | low polyreactivity
42 | QVQLVESGGGLVQAGGSLRLSCAASGITFYYYAMGWYRQAPGKERELVASIDNSGGSTYYADSVKGRFTISRDNEKNTVYLQMHSLKPEDTAVYFCAAVSRYYFLGVAFLDDYWGQGTLVTVSS | high polyreactivity
43 | QVQLVESGGGLVQAGGSLRLSCAASGRIFRKYTMGWYRQAPGKERELVAAITWSGGSTYYADSVKGRFTISRDNAKNTVYLQMNSLKPEDTAVYYCAARSIGGYRAVDTYYYWGHGTQVTVSS | high polyreactivity
